# Measured values published in US20250075002A1 (BEIGENE SWITZERLAND, published 2025).
# Where a chain is given by its changes, count along the chain named. Like-named read-outs stand apart in the source and are kept apart here.
# T1: human CD16B (NA1) on NK92mi cells (human, UniProt O75015 17-200)
# T1 construct: also called NK92mi/CD16B (NA1); NK92mi/CD16B NA1
# T1 chain: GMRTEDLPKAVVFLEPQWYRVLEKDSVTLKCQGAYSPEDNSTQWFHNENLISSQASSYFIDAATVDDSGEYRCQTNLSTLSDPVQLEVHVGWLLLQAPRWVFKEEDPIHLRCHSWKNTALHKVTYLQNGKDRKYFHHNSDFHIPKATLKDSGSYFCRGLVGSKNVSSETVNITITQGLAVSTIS
# T2: human CD16B (NA2) on NK92mi cells (human, UniProt O75015 17-200)
# T2 construct: also called NK92mi/CD16B (NA2); NK92mi/CD16B NA2
# T2 chain: T1 chain with R20S, N49S, D66N, V90I
# T3: human CD16B-His6 (NA2) (human, UniProt O75015 17-200)
# T3 construct: Bought ECD fragment; also called CD16B NA2; human CD16B (NA2); not shown: six-histidine tag (His6)
# T3 chain: T1 chain with R20S, N49S, D66N, V90I
# T4: human CD16B-His6 (NA1) (human, UniProt O75015 17-200)
# T4 construct: Bought ECD fragment; also called CD16B NA1; human CD16B (NA1); not shown: six-histidine tag (His6)
# T4 chain: T1 chain
# B1: BG525P (VHH-Fc) (VHH)
# chain: EVQLVESGGGLVQPGGSLRLSCAASGRTFGSYAVGWFRQAPGRGREFVAAIRRSDGTTDYVDSVKGRFTISRDNAKNTVYLQMNSLKPEDTAVYYCAASDSDYEPLGDYWGQGTLVTVSSEPKSSDKTHTCPPCPAPPAAGPSVFLFPPKPKDTLMISRTPEVTCVVVDVSHEDPEVKFNWYVDGVEVHNAKTKPREEQYNSTYRVVSVLTVLHQDWLNGKEYKCKVSNKALAAPIEKTISKAKGQPREPQVYTLPPSREEMTKNQVSLTCLVKGFYPSDIAVEWESNGQPENNYKTTPPVLDSDGSFFLYSKLTVDKSRWQQGNVFSCSVMHEALHNHYTQKSLSLSPGK
# notes: Humanized BG523P variant, VHH-Fc
# B2: BG526P (VHH-Fc) (VHH)
# chain: B1 chain with R43K, G56A
# notes: as for B1
# B3: BG524P (VHH-Fc) (VHH)
# chain: B1 chain with R43K, F47W, G56A, T78S, K87R
# notes: Humanized BG523P variant, VHH fused to the N-terminus of the human IgG1 variant Fc
# B4: MUC1×CD16A multi-specific antibody BG1222P (bispecific antibody, human IgG1, kappa)
# chain: EVQLVESGGGLVQPGGSLRLSCAASGRTFGSYAVGWFRQAPGKGREFVAAIRRSDATTDYVDSVKGRFTISRDNAKNTVYLQMNSLKPEDTAVYYCAASDSDYEPLGDYWGQGTLVTVSSGGGGSGGGGSEVQLVESGGGLVQPGGSLRLSCAASGRTFGSYAVGWFRQAPGKGREFVAAIRRSDATTDYVDSVKGRFTISRDNAKNTVYLQMNSLKPEDTAVYYCAASDSDYEPLGDYWGQGTLVTVSSEPKSSDKTHTCPPCPAPELLGGPSVFLFPPKPKDTLYITREPEVTCVVVDVSHEDPEVKFNWYVDGVEVHNAKTKPREEQYNSTYRVVSVLTVLHQDWLNGKEYKCKVSNKALPAPIEKTISKAKGQPREPQVYTLPPSREEMTKNQVSLWCLVKGFYPSDIAVEWESNGQPENNYKTTPPVLDSDGSFFLYSKLTVDKSRWQQGNVFSCSVMHEALHNHYTQKSLSLSPGK
# heavy: EVQLLESGGGLVQPGGSLRLSCAASGFTFNDYIMSWVRQAPGKGLEWVATVSSGGDNTYYPDSVKGRFTISRDNSKNTLYLQMNSLRAEDTAVYYCTRYGGLGAMDYWGQGTLVTVSSASTKGPSVFPLAPSSKSTSGGTAALGCLVKDYFPEPVTVSWNSGALTSGVHTFPAVLQSSGLYSLSSVVTVPSSSLGTQTYICNVNHKPSNTKVDKKVEPKSCDKTHTCPPCPAPELLGGPSVFLFPPKPKDTLYITREPEVTCVVVDVSHEDPEVKFNWYVDGVEVHNAKTKPREEQYNSTYRVVSVLTVLHQDWLNGKEYKCKVSNKALPAPIEKTISKAKGQPREPQVYTLPPSREEMTKNQVSLSCAVKGFYPSDIAVEWESNGQPENNYKTTPPVLDSDGSFFLVSKLTVDKSRWQQGNVFSCSVMHEALHNHYTQKSLSLSPGK
# light: DIQMTQSPSSLSASVGDRVTITCRASGNIHNYLTWYQQKPGKAPKLLIYNAKTLASGVPSRFSGSGSGTDFTLTISSLQPEDFATYYCQHFWSVPYTFGQGTKLEIKRTVAAPSVFIFPPSDEQLKSGTASVVCLLNNFYPREAKVQWKVDNALQSGNSQESVTEQDSKDSTYSLSSTLTLSKADYEKHKVYACEVTHQGLSSPVTKSFNRGEC
# notes: '2+1' IgG-like format: chain 1 = tandem BG526P VHHs-hinge-Fc (knob), chain 2 = huBG219P-E39 heavy chain (hole), chain 3 = huBG219P-E39 kappa light chain; YTE mutations in both Fc; also called BG11222P
# Experiments:
# human CD16A-His6 (F158) [1] = molecular target: T5, human CD16A-His6 (F158) (human, UniProt P08637 17-208); test: SPR; VHH-Fc captured on anti-human Fc surface
# T5 construct: Bought ECD fragment; also called human CD16A (F158); not shown: six-histidine tag (His6)
# human CD16A-His6 (V158) [2] = molecular target: T6, human CD16A-His6 (V158) (human, UniProt P08637 17-208); test: SPR; VHH-Fc captured on anti-human Fc surface
# T6 construct: Bought (Sino Biologics) ECD fragment; also called CD16A 158V; human CD16A (V158); not shown: six-histidine tag (His6)
# human CD16A-His6 (F158) [3] = molecular target: T5, human CD16A-His6 (F158); test: SPR; VHH-Fc captured on anti-human Fc surface; row head prints 'KD (nM)', koff/kon shows M
# human CD16A-His6 (V158) [4] = molecular target: T6, human CD16A-His6 (V158); test: as above
# [5] = molecular target: T1, human CD16B (NA1) on NK92mi cells; test: flow cytometry on live NK92mi/CD16B NA1 cells, 300 nM VHH-Fc
# [6] = molecular target: T2, human CD16B (NA2) on NK92mi cells; test: flow cytometry on live NK92mi/CD16B NA2 cells, 300 nM VHH-Fc
# [7] = molecular target: T7, human CD16A (F158) on NK92mi cells (human, UniProt P08637 17-254); test: flow cytometry, biotinylated VHH-Fc on NK92mi/CD16A 158F cells, with 10 mg/ml human IgG1 CB6 as competitor
# T7 construct: NK92mi cells co-transduced with CD16A (F158) and FcRgamma cDNAs; also called NK92mi/CD16A F158
# [8] = molecular target: T7, human CD16A (F158) on NK92mi cells; test: flow cytometry, biotinylated VHH-Fc on NK92mi/CD16A 158F cells, without human IgG1 (CB6)
# [9] = molecular target: T7, human CD16A (F158) on NK92mi cells; test: flow cytometry on NK92mi/CD16A 158F cells
# human CD16B-His6 (NA2) [10] = molecular target: T3, human CD16B-His6 (NA2); test: SPR; VHH-Fc captured on anti-human Fc surface; row head prints 'KD (nM)', taken as M like the rest of the table
# human CD16B-His6 (NA1) [11] = molecular target: T4, human CD16B-His6 (NA1); test: as above
# cyno CD16-His6 [12] = molecular target: T8, cyno CD16-His6 (cyno, UniProt Q8SPW2 17-208); test: SPR; VHH-Fc captured on anti-human Fc surface
# T8 construct: Bought ECD fragment; not shown: six-histidine tag (His6)
# T8 sequence (Q8SPW2 17-208): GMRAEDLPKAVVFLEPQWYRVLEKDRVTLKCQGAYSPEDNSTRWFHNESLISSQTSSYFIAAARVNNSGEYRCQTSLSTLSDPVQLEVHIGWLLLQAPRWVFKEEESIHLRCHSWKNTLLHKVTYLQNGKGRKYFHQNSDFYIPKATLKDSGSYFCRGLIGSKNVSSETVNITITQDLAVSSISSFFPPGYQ
# cyno CD16-His6 [13] = molecular target: T8, cyno CD16-His6; test: SPR; VHH-Fc captured on anti-human Fc surface; column head prints 'KD (nM)', koff/kon shows M
# [14] = molecular target: T7, human CD16A (F158) on NK92mi cells; test: flow cytometry on live NK92mi/CD16A 158F cells
# human CD16B-His6 (NA2) [15] = molecular target: T3, human CD16B-His6 (NA2); test: SPR; VHH-Fc captured on anti-human Fc surface; row head prints 'KD (nM)', taken as M like the rest of the table
# human CD16B-His6 (NA1) [16] = molecular target: T4, human CD16B-His6 (NA1); test: as above
# human CD16A-His6 (F158) [17] = molecular target: T5, human CD16A-His6 (F158); test: SPR; VHH-Fc captured on anti-human Fc surface; row head prints 'KD (nM)', text gives 0.08 nM, so M
# human CD16A-His6 (V158) [18] = molecular target: T6, human CD16A-His6 (V158); test: as above
# human CD16A-His6 (F158) [19] = molecular target: T5, human CD16A-His6 (F158); test: SPR; VHH-Fc captured on anti-human Fc surface; remark: listed apart in the source
# human CD16A-His6 (V158) [20] = molecular target: T6, human CD16A-His6 (V158); test: SPR; VHH-Fc captured on anti-human Fc surface; remark: listed apart in the source
# [21] = molecular target: T9, human CD16A (V158) on NK92mi cells (human, UniProt P08637 17-254); test: flow cytometry, biotinylated antibody on NK92mi/CD16A V158 cells, w/o huIgG
# T9 construct: NK92mi cells co-transduced with CD16A (V158) and FcRgamma cDNAs; also called NK92mi/CD16A V158; NK92mi/CD16A
# T9 sequence (P08637 17-254 F176V limits assumed): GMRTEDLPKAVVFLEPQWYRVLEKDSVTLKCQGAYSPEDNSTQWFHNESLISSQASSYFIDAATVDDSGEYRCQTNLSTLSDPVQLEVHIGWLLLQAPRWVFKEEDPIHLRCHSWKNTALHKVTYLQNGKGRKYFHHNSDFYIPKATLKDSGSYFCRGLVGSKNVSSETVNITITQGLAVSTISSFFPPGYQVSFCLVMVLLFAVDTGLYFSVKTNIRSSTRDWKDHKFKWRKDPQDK
# [22] = molecular target: T7, human CD16A (F158) on NK92mi cells; test: flow cytometry, biotinylated antibody on NK92mi/CD16A F158 cells, w/o huIgG
# Target sequence in this assay (P08637 17-254 limits assumed): as the sequence (P08637 17-254 F176V limits assumed) above, with V160F counted along it
# human CD16A-His6 (F158) [23] = molecular target: T5, human CD16A-His6 (F158); test: SPR; BG1222P captured by biotin anti-human Fc VHH on neutravidin; column head prints 'KD (nM)', koff/kon shows M
# Target sequence in this assay (P08637 17-208): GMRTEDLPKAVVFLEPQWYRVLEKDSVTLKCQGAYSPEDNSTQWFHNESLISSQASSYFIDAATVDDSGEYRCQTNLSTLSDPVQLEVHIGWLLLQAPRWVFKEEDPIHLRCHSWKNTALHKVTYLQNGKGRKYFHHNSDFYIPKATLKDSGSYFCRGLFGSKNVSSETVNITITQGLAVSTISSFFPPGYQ
# human CD16A-His6 (V158) [24] = molecular target: T6, human CD16A-His6 (V158); test: as above
# Target sequence in this assay (P08637 17-208 F176V): as the sequence (P08637 17-208) above, with F160V counted along it
# [25] = molecular target: T9, human CD16A (V158) on NK92mi cells; test: flow cytometry, biotinylated antibody on NK92mi/CD16A V158 cells, with 10 mg/ml huIgG1 as competitor
# human CD16A-His6 (F158) [26] = molecular target: T5, human CD16A-His6 (F158); test: SPR; BG1222P captured by biotin anti-human Fc VHH on neutravidin, analyte in solution
# Target sequence in this assay (P08637 17-208): as the sequence (P08637 17-208) above
# human CD16A-His6 (V158) [27] = molecular target: T6, human CD16A-His6 (V158); test: as above
# Target sequence in this assay (P08637 17-208 F176V): as the sequence (P08637 17-208) above, with F160V counted along it
# [28] = molecular target: T7, human CD16A (F158) on NK92mi cells; test: flow cytometry, biotinylated antibody on NK92mi/CD16A F158 cells, with 10 mg/ml huIgG1 as competitor
# Target sequence in this assay (P08637 17-254 limits assumed): as the sequence (P08637 17-254 F176V limits assumed) above, with V160F counted along it
Binder,koff (human CD16A-His6 (F158) [1]),kon (human CD16A-His6 (F158) [1]),koff (human CD16A-His6 (V158) [2]),kon (human CD16A-His6 (V158) [2]),Kd (human CD16A-His6 (F158) [3]),Kd (human CD16A-His6 (V158) [4]),Binding signal at 300 nM (MFI) [5],Binding signal at 300 nM (MFI) [6],EC50 [7],EMAX (MFI) [7],EC50 [8],EMAX (MFI) [8],EC50 [9],EMAX (MFI) [9],Kd (human CD16B-His6 (NA2) [10]),Kd (human CD16B-His6 (NA1) [11]),koff (cyno CD16-His6 [12]),kon (cyno CD16-His6 [12]),Kd (cyno CD16-His6 [13]),other results
B1,0.00012 s⁻¹,210000 M⁻¹ s⁻¹,0.000103 s⁻¹,255000 M⁻¹ s⁻¹,0.575 nM,0.404 nM,733 MFI,75 MFI,6.83 nM,21900 MFI,1.65 nM,23300 MFI,10.3 nM,9710 MFI,5.78 µM,2310 nM,0.000112 s⁻¹,267000 M⁻¹ s⁻¹,0.418 nM,
B2,0.000148 s⁻¹,230000 M⁻¹ s⁻¹,0.000133 s⁻¹,289000 M⁻¹ s⁻¹,0.64 nM,0.425 nM,473 MFI,52 MFI,4.95 nM,19600 MFI,1.52 nM,21600 MFI,9.1 nM,9200 MFI,7.64 µM,2740 nM,0.000147 s⁻¹,301000 M⁻¹ s⁻¹,0.49 nM,
B3,,,,,,,,,,,,,,,,,,,,EC50 [14]: 4.42 nM; Kd (human CD16B-His6 (NA2) [15]): 1050 nM; Kd (human CD16B-His6 (NA1) [16]): 942 nM; Kd (human CD16A-His6 (F158) [17]): 0.0825 nM; Kd (human CD16A-His6 (V158) [18]): 0.0816 nM; koff (human CD16A-His6 (F158) [19]): 0.000119 s⁻¹; kon (human CD16A-His6 (F158) [19]): 1.44e+06 M⁻¹ s⁻¹; koff (human CD16A-His6 (V158) [20]): 0.00011 s⁻¹; kon (human CD16A-His6 (V158) [20]): 1.35e+06 M⁻¹ s⁻¹
B4,,,,,,,,,,,,,,,,,,,,EC50 [21]: 0.35 nM; EC50 [22]: 0.97 nM; Kd (human CD16A-His6 (F158) [23]): 0.147 nM; Kd (human CD16A-His6 (V158) [24]): 0.0477 nM; EC50 [25]: 33.9 nM; koff (human CD16A-His6 (F158) [26]): 8.52e-05 s⁻¹; kon (human CD16A-His6 (F158) [26]): 579000 M⁻¹ s⁻¹; koff (human CD16A-His6 (V158) [27]): 4.22e-05 s⁻¹; kon (human CD16A-His6 (V158) [27]): 886000 M⁻¹ s⁻¹; EC50 [28]: 7.99 nM
